In experiment [1] the target is T1, muCDH19(44-139)::huCDH19(142-364)::muCDH19(363-770) with Flag tag (construct E, Hu EC2-3) (human/mouse chimera).
T1 construct: leader left out; the entry starts at residue 44; also called C137847
Nature of the experiment: flow cytometry, transfected 293T cells. A general note: In flow cytometry, cells or beads pass a laser one at a time.
Text: (§1) The experiment included assaying the anti-CDH19 antibodies against mouse Cadherin19 to determine suitability for binning on these human/mouse chimeras.

In experiment [2] the target is T2, muCDH19(44-247)::huCDH19(250-364)::muCDH19(363-770) with Flag tag (construct F, Hu EC3) (human/mouse chimera).
T2 construct: leader left out; the entry starts at residue 44; also called C137911
Briefly: flow cytometry, transfected 293T cells.
Text: as §1

Experiment [3] deals with huCDH19(44-772) with Flag tag (construct A, Hu EC1-5) (human, UniProt Q9H159 44-772). Nature of the experiment: flow cytometry, transfected 293T cells.
Text: as §1
Experiment [4] has as its target T3, ckCDH19(1-43)::FLAG::ckCDH19(44-468)::huCDH19(464-772) (construct O, Hu EC5) (human/chicken chimera).
T3 construct: leader (1-43 of the entry) left out
T3 chain: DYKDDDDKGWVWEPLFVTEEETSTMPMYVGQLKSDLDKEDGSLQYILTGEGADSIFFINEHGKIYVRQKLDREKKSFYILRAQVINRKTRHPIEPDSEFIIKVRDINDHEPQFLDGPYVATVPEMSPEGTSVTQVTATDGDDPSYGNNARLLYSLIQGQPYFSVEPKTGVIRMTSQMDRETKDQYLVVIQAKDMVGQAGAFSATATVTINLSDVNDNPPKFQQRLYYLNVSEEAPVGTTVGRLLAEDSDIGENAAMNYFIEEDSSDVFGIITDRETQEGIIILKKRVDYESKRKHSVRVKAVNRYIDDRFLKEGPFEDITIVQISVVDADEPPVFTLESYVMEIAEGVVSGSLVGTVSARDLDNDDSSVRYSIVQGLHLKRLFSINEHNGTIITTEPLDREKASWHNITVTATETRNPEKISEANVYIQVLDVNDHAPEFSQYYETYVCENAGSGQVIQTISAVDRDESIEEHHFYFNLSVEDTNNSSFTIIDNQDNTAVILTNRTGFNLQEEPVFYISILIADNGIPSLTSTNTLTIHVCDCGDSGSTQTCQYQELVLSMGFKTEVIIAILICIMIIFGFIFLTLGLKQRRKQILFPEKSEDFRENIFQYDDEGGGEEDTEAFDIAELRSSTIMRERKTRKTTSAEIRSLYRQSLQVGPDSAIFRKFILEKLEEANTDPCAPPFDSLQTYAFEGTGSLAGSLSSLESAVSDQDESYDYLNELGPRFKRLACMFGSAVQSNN
Nature of the experiment: flow cytometry, transfected 293T cells, 2 mM CaCl2.
Experimental: (§2) The experiment included assaying a subset of anti-CDH19 antibodies against chicken Cadherin19 to determine suitability for binning on these human/chicken chimeras.
(§3) The following binding assay was completed in presence of 2 mM CaCl₂). […] Cells were then washed one time and the amount of cell associated Alexa647-labelled Ab was quantitated by flow cytometry. The experiments included mock transfected controls.

The target in experiment [5] is T4, ckCDH19(1-43)::FLAG::ckCDH19(44-776) (construct J, Ck EC1-5) (chicken).
T4 construct: the entry holds leader (1-43), FLAG and ckCDH19(44-776); leader left out; also called chicken Cadherin19
T4 chain: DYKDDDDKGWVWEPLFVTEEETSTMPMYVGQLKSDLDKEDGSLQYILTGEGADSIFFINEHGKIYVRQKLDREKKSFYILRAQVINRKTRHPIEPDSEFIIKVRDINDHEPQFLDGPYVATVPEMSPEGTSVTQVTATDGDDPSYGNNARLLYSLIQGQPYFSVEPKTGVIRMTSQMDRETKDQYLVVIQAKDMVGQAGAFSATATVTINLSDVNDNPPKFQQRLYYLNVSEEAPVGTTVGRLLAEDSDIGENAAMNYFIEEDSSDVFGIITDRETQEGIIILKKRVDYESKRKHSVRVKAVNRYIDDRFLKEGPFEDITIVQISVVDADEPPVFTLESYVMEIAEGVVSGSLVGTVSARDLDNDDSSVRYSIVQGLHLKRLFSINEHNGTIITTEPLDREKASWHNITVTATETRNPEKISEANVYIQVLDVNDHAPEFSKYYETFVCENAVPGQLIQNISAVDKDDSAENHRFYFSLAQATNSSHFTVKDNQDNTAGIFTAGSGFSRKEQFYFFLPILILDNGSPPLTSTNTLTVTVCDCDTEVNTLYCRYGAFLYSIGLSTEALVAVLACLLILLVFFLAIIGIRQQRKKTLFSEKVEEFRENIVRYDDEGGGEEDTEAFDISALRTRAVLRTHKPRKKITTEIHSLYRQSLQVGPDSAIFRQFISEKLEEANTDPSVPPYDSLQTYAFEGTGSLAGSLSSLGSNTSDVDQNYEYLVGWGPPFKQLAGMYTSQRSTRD
Nature of the experiment: flow cytometry, transfected 293T cells, 2 mM CaCl2.
Experimental: as §2, §3

Experiment [6] concerns the target T5, ckCDH19(1-43)::FLAG::ckCDH19(44-141)::huCDH19(142-249)::ckCDH19(250-776) (construct L, Hu EC2) (human/chicken chimera).
T5 construct: leader (1-43 of the entry) left out
T5 chain: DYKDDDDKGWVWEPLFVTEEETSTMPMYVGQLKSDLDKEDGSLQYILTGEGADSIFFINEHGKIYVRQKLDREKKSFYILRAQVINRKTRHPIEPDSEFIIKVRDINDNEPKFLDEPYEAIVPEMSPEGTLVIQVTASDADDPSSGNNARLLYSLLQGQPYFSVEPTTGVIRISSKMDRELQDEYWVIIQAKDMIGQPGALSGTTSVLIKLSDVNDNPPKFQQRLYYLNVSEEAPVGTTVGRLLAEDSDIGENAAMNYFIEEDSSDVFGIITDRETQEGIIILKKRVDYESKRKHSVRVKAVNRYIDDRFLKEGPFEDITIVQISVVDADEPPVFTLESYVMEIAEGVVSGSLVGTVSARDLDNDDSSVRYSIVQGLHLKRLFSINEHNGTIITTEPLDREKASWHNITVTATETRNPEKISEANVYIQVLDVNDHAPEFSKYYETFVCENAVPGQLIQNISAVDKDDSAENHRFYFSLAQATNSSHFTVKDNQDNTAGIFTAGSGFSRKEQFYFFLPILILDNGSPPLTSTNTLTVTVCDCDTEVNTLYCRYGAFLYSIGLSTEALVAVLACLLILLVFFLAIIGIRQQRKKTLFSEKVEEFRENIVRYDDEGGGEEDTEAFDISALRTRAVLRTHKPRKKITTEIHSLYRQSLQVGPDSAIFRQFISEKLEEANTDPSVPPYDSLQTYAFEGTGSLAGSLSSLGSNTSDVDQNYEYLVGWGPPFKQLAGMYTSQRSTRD
Nature of the experiment: flow cytometry, transfected 293T cells, 2 mM CaCl2.
Experimental: as §2, §3

Experiment [7] has as its target T6, huCDH19(1-43)::FLAG::hu(44-141)::ckCDH19(142-776) (construct K, Hu EC1) (human/chicken chimera).
T6 construct: leader (1-43 of the entry) left out; also called huCDH19(44-141)::ckCDH19(142-776)
Briefly: flow cytometry, transfected 293T cells, 2 mM CaCl2.
Experimental: as §2, §3

Experiment [8] concerns the target T7, muCDH19(44-770) with Flag tag (construct I, Mu EC1-5) (mouse).
T7 construct: leader left out; the entry starts at residue 44; also called Mo EC1-5; mouse Cadherin19
T7 chain: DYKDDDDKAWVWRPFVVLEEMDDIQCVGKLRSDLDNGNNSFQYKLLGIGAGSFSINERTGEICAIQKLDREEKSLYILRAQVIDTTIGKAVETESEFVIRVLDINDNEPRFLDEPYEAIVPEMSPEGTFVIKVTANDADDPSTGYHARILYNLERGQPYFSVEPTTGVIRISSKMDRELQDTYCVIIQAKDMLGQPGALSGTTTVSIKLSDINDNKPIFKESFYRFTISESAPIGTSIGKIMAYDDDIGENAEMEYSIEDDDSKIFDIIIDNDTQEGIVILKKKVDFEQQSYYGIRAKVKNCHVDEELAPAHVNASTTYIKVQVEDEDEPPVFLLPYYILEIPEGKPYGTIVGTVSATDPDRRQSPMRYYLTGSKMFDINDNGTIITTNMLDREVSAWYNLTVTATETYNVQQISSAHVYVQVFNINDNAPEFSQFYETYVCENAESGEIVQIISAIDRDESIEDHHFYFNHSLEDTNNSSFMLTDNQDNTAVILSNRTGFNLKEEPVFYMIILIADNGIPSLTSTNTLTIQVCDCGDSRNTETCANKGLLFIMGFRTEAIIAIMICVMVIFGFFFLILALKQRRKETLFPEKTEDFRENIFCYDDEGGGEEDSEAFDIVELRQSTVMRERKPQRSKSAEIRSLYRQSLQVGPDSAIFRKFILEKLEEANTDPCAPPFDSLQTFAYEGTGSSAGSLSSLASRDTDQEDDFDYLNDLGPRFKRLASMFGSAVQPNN
Briefly: flow cytometry, transfected 293T cells, 2 mM CaCl2.
Experimental: as §3

We go through four molecules from US20220127354A1 (Amgen, published 2022).

B1: hu anti-<huCDH19> 4A2 (1-472)(Q17E,H47P) VH::huIgG1z + 4A2 (1-236)(N30Q,T102A) VL::huKLC (Ab ID 14026) (antibody, V domains shown)
VH: QVQLQESGPGLVKPSETLSLTCTVSGGSISSSGYYWSWIRQPPGKGLEWIGYIYYTGSAYYNPSLKSRVTISVDTSKNQFSLKLSSVTAADTAVYYCARDGSSGWYFQYWGQGTLVTVSS
VL: EIVLTQSPGTLSLSPGERATLSCRASRQISSSYLAWYQQKPGQAPRLLIYGPSSRATGIPDRFSGSGSGTDFTLTISRLEPEDFAVYYCQQYGSSFTFGPGTKVDIKR
notes: Engineered variant of 4A2; the entries already carry the changes; Bin 4
With B1, the binding result in experiment [1], in experiment [2] and in experiment [3] was “binds” throughout.

B2: hu anti-<huCDH19> 4B10 (1-471)(R17G) VH::huIgG1z + 4B10 (1-236)(H45Q,A90T) VL::huKLC (Ab ID 14054) (antibody, V domains shown)
VH: QVQLVESGGGVVQPGGSLRLSCAASGFTFSSYDMHWVRQAPGKGLEWVAVISYDGTNEYYADSVKGRFTISRDTSKNTLYLQMNSLRAEDTAVYYCARERYFDWSFDYWGQGTLVSVSS
VL: EIVLTQSPGTLSLSPGERATLSCRASQSVSNTYLAWYQQRPGQAPRLLIYGASSRATGIPDRFSGSGSGTDFTLTISSLEPEDFAVYYCQQYSNSWTFGQGTKVEIKR
notes: Engineered variant of 4B10; the entries already carry the changes; Bin 4
Consider B2, for which the binding result in experiment [1], in experiment [2] and in experiment [3] was “binds” throughout.

B3: hu anti-<huCDH19> 26F12.1 (Ab ID 13881) (antibody, human IgG1, lambda, V domains shown)
VH: QVQLVQSGAEVKKPGASVKVSCKASRYTFTNYYMSWVRQAPGQGLEWMGIINPSGGDSTYAQKFQGRLTMTGDTSTSTVYMELSSLRSEDTAVYYCARGGIQLWLHFDYWGQGTLVTVSS
VL: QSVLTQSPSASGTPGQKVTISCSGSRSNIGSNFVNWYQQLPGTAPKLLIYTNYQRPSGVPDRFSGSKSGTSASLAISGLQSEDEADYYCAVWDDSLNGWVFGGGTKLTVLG
notes: huIgG1z / huLLC-C2; Bin 2; also called 27B3
For B3, the binding result is recorded as “no binding (tested: 5 ug/ml)” in experiment [4]; “no binding (tested: 5 ug/ml)” in experiment [5]; “no binding (tested: 5 ug/ml)” in experiment [6]; “binds” in experiment [7]; “no binding (tested: 5 ug/ml)” in experiment [8].

B4: hu anti-<huCDH19> 17H8.2 (Ab ID 13874) (antibody, human IgG1, kappa, V domains shown)
VH: QVQLQESGPGLVKPSETLSLTCTVSGGSINSYYWSWIRQPPGKGLEWIGYIYYIGSTNYNPSLKSRVTISVDTSKNQFSLKLSSVTAADTALYYCARDSRYRSGWYDAFDIWGQGTMVTVSS
VL: DIVLTQSPGTLSLSPGERATLSCRASQSVAGSYLAWYQQKPGQAPRLLISGASSRATGIPDRFSGSGSGTDFTLTISRLEPEDFAVYYCQQYGKSPITFGQGTRLEMKG
notes: huIgG1z / huKLC; Bin 3; also called 23B6; 28D10
On to B4, for which the binding result in experiment [4] is on record as “no binding (tested: 5 ug/ml)”; in experiment [5] it was “no binding (tested: 5 ug/ml)”; in experiment [6], “no binding (tested: 5 ug/ml)”; in experiment [7] it was “binds”.
